The test system of series [1] is GII.4 HuNoV VLP (VP1 capsid) (Human norovirus GII.4 Hu/GII.4/DBM15-156/2015). The experiment in a line: BLI. As to conditions: BLI: PBST + 5 mM Mg2+, biotin-aptamer 100 nM, VLP 18.75-150 nM, Octet RED96, ELASA: VLP 3 ug/mL, aptamer 1 uM, CD: 10 mM Tris-HCl pH 7.4, 1.0 mM NaCl, 0.05 mM ….
The test system is the same in series [2]. The series can be described thus: ELASA. As to conditions: BLI: PBST + 5 mM Mg2+, biotin-aptamer 100 nM, VLP 18.75-150 nM, Octet RED96; ELASA: VLP 3 ug/mL, aptamer 1 uM; CD: 10 mM Tris-HCl pH 7.4, 1.0 mM NaCl, 0.05 mM ….
Series [3] concerns the target GII.17 HuNoV VLP (Human norovirus GII.17 …, UniProt A0A0E3X5I8 1-540). The experiment in a line: AuNP colorimetric competition; A620/A520 < 0.4; BLI: PBST + 5 mM Mg2+, biotin-aptamer 100 nM, VLP 18.75-150 nM, Octet RED96; ELASA: VLP 3 ug/mL, aptamer 1 uM; CD: 10 mM Tris-HCl pH 7.4, 1.0 mM NaCl, 0.05 mM MgCl2, room temperature. As to conditions: protein: recombinant; chain copies: 180; label: biotin (5' in the colorimetric assay); stem-loops.

Series [4] concerns the target GII.2 HuNoV VLP (Human norovirus GII.2 Env/CHN/2016, UniProt A0A291L9K1 1-542). Described as above. As to conditions: protein: recombinant; tags: His; chain copies: 180; label: biotin (5' in the colorimetric assay); stem-loops.

Here are results for 3 molecules from PMC12650235, “Optimized Aptamer-Conjugated Gold Nanoparticles for Specific Detection of GII.4 Human Norovirus in Feces”.

“AACACGACCCACGTACCTGTGCGAGACACAGACCACCAAGGTGGGC [AP4-11]”: in series [1], the Kd turned out to be 2.28 nM.
As for “AACACGACCCACGTACCTGTGTGAGACACAGACCACCAAGGTGGGC [AP4-11-2 (C22T)]”, the Kd in series [1] (5 mM Mg2+, poor fit R2=0.86) was 4.62 nM. Also, in series [2], the binding signal (% of AP4-11 (46% loss)) turned out to be 54.
As for AACACGACCCACGTACCTGTGCGAGACACAGACCACCAAGGTGGGC (structured_DNA) [AP4-11], the binding result in series [3] and in series [4] was “no binding” each time.
